Assay results: patent US12173349B2, “Lung protease nanosensors and uses thereof” (Massachusetts Institute of Technology, priority 2018, dated 2024)
Primed or numbered codes have the meaning given here. Where no end group is shown, it is not given here. FAM = carboxyfluorescein fluorophore label; 5FAM′ = 5-carboxyfluorescein

Key:
recombinant human MMP13 = biological target: T1, recombinant human MMP13 (Homo sapiens, UniProt P45452); assay: cleavage of aerosolized fluorogenic nanosensor by MMP13; assay type: biochemical; details: 50 nM MMP13, 5 μM nanosensor
T1 construct: purchased Enzo
Procedure: As a step toward developing a more clinically relevant delivery method, particle durability and biodistribution after aerosolization were also characterized.
Analysis of nanoparticle stability and protease cleavage susceptibility following aerosolization used […] 250 μM PEG-840 kDa scaffold (FIGS. 22B-22E) or 5 μM PPQ5 PEG-840 kDa nanosensors (FIG. 22F). Protease cleavage assays of aerosolized nanoparticles used 50 nM of recombinant human MMP13 (Enzo).

[1] = urinary filtration of mass-encoded free reporters after IT or IV administration; assay type: in vivo, mice; details: doses 2.5 ng to 25 ng, urine at 1 hour
Excerpt: To enable detection of a broad spectrum of disease-associated proteases in vivo, the 14 peptides of the LUAD substrate panel were appended with mass-encoded reporters (PP1-14; Table 3). Following substrate proteolysis, the reporters diffuse away from the nanoparticle scaffold and are sized so as to be able to efficiently cross into the bloodstream, where they can be concentrated into the urine by glomerular filtration (FIG. 1B). As previously described (Kwong et al., Nat Biotechnol 31, 63-70, 2013), variable labeling of the 14-mer Glu-Fibrinopeptide B (Glu-Fib) with stable isotope-labeled amino acids was used to uniquely barcode each of 14 peptide substrates. Multiple reaction monitoring via a liquid chromatography triple quadrupole mass spectrometer (LC-MS/MS) enables quantitative assessment of peptide-liberated urinary reporter concentration within a broad linear range (1-1000 ng/mL, FIG. 8A). Using mass-encoded free reporters, the filtration of Glu-Fib reporters into the urine after IT or IV administration was assessed and strong linearity of the MS assay for both routes of delivery for input doses between 2.5 ng and 25 ng (R^2=1.00, FIG. 8B) was found for both routes of delivery (sloperIT=0.075 ng^−1, slopeIV=0.077 ng^−1; FIG. 8B).
Liquid chromatography/tandem mass spectrometry was performed by Syneos Health (Princeton, NJ) using a Sciex 6500 triple quadrupole instrument. […]

MMP7 = biological target: T2, MMP7 (Mus musculus, UniProt Q10738); assay: recombinant host protease cleavage assay; assay type: biochemical
T2 sequence (Q10738 95-264): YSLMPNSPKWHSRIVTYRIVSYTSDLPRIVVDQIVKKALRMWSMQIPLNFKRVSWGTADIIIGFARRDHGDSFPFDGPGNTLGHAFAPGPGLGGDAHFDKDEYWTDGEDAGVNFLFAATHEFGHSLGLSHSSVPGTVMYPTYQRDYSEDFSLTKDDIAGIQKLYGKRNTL
Procedure: (§1) The specificity of LAS and ELA for P. aeruginosa cleavage was tested by collecting supernatants from PA01 or Staphylococcus aureus cultures and incubating them with FRET-paired substrates LAS-Q and ELA-Q in 384 well plates. […] To investigate whether the LAS and ELA substrates are also susceptible to cleavage by host proteases, each was incubated with recombinant mouse proteases.
(§2) Supernatant from PA01 and S. aureus were collected and added to substrates in 384 well plates and dequenching of FAM was monitored at 37° C. (Tecan). Fluorescence change at 30 minutes was reported. For recombinant protease assays, enzyme was added to the substrates in enzyme-specific buffer (MMP7 & 9 buffer: 50 mM Tris, 150 mM NaCl, 5 mM CaCl2), […], pH 7.5; Thrombin: PBS; NE: 100 mM HEPES, 500 mM NaCl, 0.05% Tween 20) in a 384 well plate for time-lapse fluorimetry to measure dequenching at 37° C. (Tecan).

thrombin = thrombin (Mus musculus, UniProt P19221); assay: recombinant host protease cleavage assay; assay type: biochemical
Procedure: as §1, §2

MMP13 = MMP13 (Mus musculus, UniProt P33435); assay: recombinant host protease cleavage assay; assay type: biochemical
Procedure: as §1, §2

PA01 supernatant = assay: cleavage of FRET-paired substrates by bacterial supernatant; assay type: biochemical, Pseudomonas aeruginosa; details: PA01 culture supernatant, fluorescence change at 30 minutes
Procedure: as §1, §2

[2] = test system: P. aeruginosa clinical isolate strains; assay: cleavage of FRET-paired substrates by clinical isolate supernatants; assay type: biochemical, Pseudomonas aeruginosa; details: five clinical isolate strains
Procedure: P. aeruginosa strains isolated from de-identified clinical samples were generously provided by Dr. Deborah Hung, MD, PhD (Massachusetts General Hospital). Cultures of each were grown in LB broth overnight, then were subcultured in fresh LB and each strain grown to OD-matched mid log phase (OD600˜0.5). Supernatants were collected by centrifugation and substrate cleavage was monitored as described above.

PEG-PPQ5: fluorogenic nanosensor, PPQ5 on PEG-840 kDa ({5FAM′}-GGPLGVRGKKC; not fully specified (residue 10); printed as GGPLGVRGKK(CPQ2)-PEG2-C; also: on PEG-840 kDa carrier, site not given here)
sensitivity to in vitro cleavage pre- versus post-aerosolization (recombinant human MMP13): equally sensitive

Glu-Fib reporters: mass-encoded free reporters, stable isotope-labeled variants of 14-mer Glu-Fibrinopeptide B
slope of urinary reporter signal versus input dose ([1]; IT administration): 0.075 ng⁻¹ | slope of urinary reporter signal versus input dose ([1]; IV administration): 0.077 ng⁻¹

LAS-Q: FRET-paired (FAM fluorophore, Dabcyl quencher) substrate for P. aeruginosa protease LasA; includes SEQ ID NO: 45 (GLGGGAGK(FAM); also: Dabcyl quencher, site not given here)
cleavage by recombinant protease (MMP7): resist cleavage | cleavage by recombinant protease (thrombin): resist cleavage | cleavage by recombinant protease (MMP13): resist cleavage | cleavage by supernatant (fluorescence signal) (PA01 supernatant): greater selectivity for cleavage of LAS-Q by PA01 | strains whose supernatant gave significant cleavage [2]: 3 of the 5 strains
